Reference: the nanobody polyreactivity screen of Harvey et al. (2022)

Assay: yeast display, Sf9 membrane polyspecificity reagent, FACS + sequencing; frameworks hold sequencing errors
Procedure, shortened: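 A nanobody's polyreactivity label depends on the gate it was sorted from. Yeast display cells were stained with 10% biotinylated, detergent-solubilized Sf9 membrane reagent for 1 hour at 4 °C, enriched on streptavidin microbeads and sorted by FACS. The low and high (top ~1%) gates were set on anti-HA fluorescence for expression and streptavidin fluorescence for reagent binding.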

Sequence	polyreactivity (PSR sort gate)
QVQLVESGGGLVQAGGSLRLSCAASGSILSWYAMGWYRQAPGKERELVAAITGAGSTNYADSVKGRFTISRDNAKNTVYLQMNSLKPEDTAVYYCAADGSPWSWYSDGYWGQGTQVTVSS	low polyreactivity
QVQLVESGGGLVQAGGRLRLSCAASGSTYYNAMGWYRQAPGKERELVAAIRFRSGSTYYADSVKGRFTISRDNAKNTVYLQMNSLKPEDTAVYYCAAYCRRSYVDSYDIRFDYWGQGTQVTVSS	high polyreactivity
QVQLVESGGGLDQAGGSLRLSCAASGSTSLSYAMGWYRQAPGKERELVAAISRGGSTTYADSVKGRFTISRDNAKNPVYFQMKSLKPVDTAVYYCAVGYDIVRYSYSPFYRYDYWGQGTQVTVSS	low polyreactivity
QVQLVESGGGLVQAGGSLRLSCAASGFIFQPYVMGWYRQAPGKERELVAAISWNGVSTYYADSVKGRFTISRDNAKNTVYLQMNSLKPEDTAVYYCAASYRYVPGLNYWGQGTQVTVSS	low polyreactivity
QVQLVESGGGLVQAGGSLRLSCAASRSIFEANDMGWYRQAQGKERELVAAIDANTGSTYYADSVKGRFTISRDNAKNTVYLQMNRLKPEDTAVYYCNAQVYLHTAYDYWGQGTQVTVSS	low polyreactivity
QVQLVESGGGLVQAGGSLRLSCAASGRIFLRNAMGWYRQAPGKERELVATITSRGGSTYYADSVKGRFTISRDNAKTTVYLQMNSLKPEDTAVYYCAADPRRYRGFGYVYGGFYYWGQGTQVTVSS	low polyreactivity
QVQLVESGGGLVQAGGSLRLSCAASGNIFYYYAMGWYRQAPGKERELVATNTSGGSTNYADSVKGRFTISRDNAKNTVYLQMNSLKPEDTAVYYCAADRRRTYYWLSSYFEGYYWGQGTQVTVSS	low polyreactivity
QVQLVESGGGLVQAGGSLRLSCAASGSIFRINVMGWYRQAPGKERELVAAITRGDSTNYADSVKGRFTISRDNAKNSVYLQMNSLKPEDTAVYYCAAGYYYYLRDHDYWGQGTQVTVSS	low polyreactivity
QVQLVESGGGLVQAGGSLRLSCAASGGTFYYNAMGWYRQAPGKERELVAAITDSGGRTYYADSVKGRFTISRDNAKNTVYLQMNSLKPEDTAVYYCAALARRQSRLYDYWGQGTQVTVSS	high polyreactivity
QVQLLESGGGLVQAGGSLRLSCAASGSTFPWYTMGWYRQAPGKERELVAPISNGGSTNYADSVKGRFTISRDNAKNTVYLQMNSLIPEDTAVYYCNARIPPYRWYQVSRGHGYWGQGTQVTVSS	high polyreactivity
QVHLVESGGGLVQAGGSLRLSCAASGFTFPYYAMGWYRQAPGKERELVATIRSGGSTYYADSVKGRFTISRDNAKNSVYLQMNSLKPEDTAVYYCAKYQGLYSYEKYGYWGQGTQVTVSS	low polyreactivity
QVQLVESGGGLVQAGGSLRLSCAASGSTFYTYPMGWYRQAPGKERELVAAISYRGGSTYYADSVKGRFTISRDTAKNTVYLQMNSMKPEDSAVYYCNVVGVVVGTKRGGYDYWGQGTHVTVSS	low polyreactivity
QVQLVESGGGLVQAGGSLRLSCAPSGRIFVYYTMGWYRQAPGKERELVAAITGSGGSTYYADSVKGRFTISRDNAKYTVYLQMNSLKPVDTAVYYCAVYDSYRKFKYWGQGTQVTVSS	high polyreactivity
QVQLVESGGGLVQAGGSLRLSSAASGFIFYDYAMGWYRQAPGKERALVAAIRSSDGGTYYADSVKGRFTISRDNAKNTVYLQMNSLKPEDTAVYYCAARPSYYDYDYWGQGTQVTVSS	low polyreactivity
QVQLVESGGGLGQAGGSLRLSCAASGSIFSANAMGWYRQAPGKERELVASITGDGSTNYADSVKGRFTISRDNAKNTVYLQMNSLKPEDTAVYYCAADIGSWYDYWGQGTQVTVSS	low polyreactivity
QVQLVESGGGLVQAGGSLRLSCAASGSTFNAYAMGWYRQAPGKERELVAAITDGDSTNYADSVKGRSTISRDNAKNTVYLQMNSLKPEDTAVYYCAKDSSVGDGDDGWVWFDLYYWGQGTQVTVSS	low polyreactivity

Sequence	polyreactivity (PSR sort gate)
QVQLVESGGGLVQAGGSLRLSCAASGRIFGYYAMGWYRQAPGKERELVAAITRNGGSTYYADSVKGRFTISRDNAKNTVYLQMNSLKPEDTAVYYCAATKGGGRGYWGQGTQVTVSS	high polyreactivity
QVQHVESGGGLVQAVGSLRLSCAASGRTFNNYAMGWYRQAPGKERELVAAISWRSDSTYYADSVMGRFTISRDNAKNTVYLQMNSLKPEDTAVYYCAASQYPLFWYDYWGQGTQVTVSS	low polyreactivity
QVQLVESGGGLVQAGGSLRLSCAASGSMSYGYGMGWYRQAPGKEREVVATISGRAGSTYYADSVKGRFTISRDNAKNTVYLQINSLQPEDTAVYYCAAKWWRLTWTAGYGGRGYGYWGQGTQVTVSS	low polyreactivity
QVQLVESGGGLVQAGGSLRLSCAASGRTLYFNAMAWYRQEPGKERELVADISIGGSTYYADSVKGRFTISRDNAKNTVYLQMNSLKPEDTAVYYLATDYLGGGKRYYYWGQGTQVTVSS	high polyreactivity
QVQLVESGGGLVQAGGSLRLSCAASGFTFDENAMGWYRQAPGINYSGASTYYADSVKGRFTISRDNAQNSVYLQMNSLKPEDTAVYYCAAEVVAQMNYWGQGTQVTVSS	low polyreactivity
QVQLVESGGGLVQAGGSLRLTCAASGYIFPYNVMGWYRQAPGKERELVAAITWRVVRTYYADSVKGRFTISRDNAKNTVYLQMNSLKPEDTAVYYCAALSRQSGDYWGQGTQVTVSS	high polyreactivity
QVQLVESGGGLVQAGGSLRLSCAASGSTFRYYAMGWYRQAPGKERELVAGITNGGRTNYADSVQGRFTISRDNAKNTVYLQMHSLKPEDTAVYYCAADLAWRRIGYNYWGQGTQVTVSS	high polyreactivity
HVQLVESGGGLVQAGGSLRLSCAASGLTFDVNAMGWYRQAARKERELVAAITADDGSTYYADSVKGRFTISRDNAKNTVYLQMNSLKPEDTAVYYCAADYVNLPYIMDYWGQGTQVTVSS	low polyreactivity
QVQLVESRGGLVQAGGSLRLTCAASGFIFKGYAMGWYRQEPGTERELVAAISYSGGNTYYADSVKGRFTISRDNAKNTVYLQMNSLKPEDTAVYYCAVRKRKVLGMYYWGQGTQVTVSS	high polyreactivity
QLQLVESGGGLDQAGVSLRLSCAASGFIFRNYAIGSYRQAPGNESELVAAITRSGTSTYYADSVKGRFSISRDNAKNTVYLQMNSLKPEDTAVYYCNTRYWLYYHRFDYWGQGTQVTVSS	high polyreactivity
QVQLVESGGGLVQAGGSLRLSCAASGRIFPYYAMGWYRQAPGKERELVAAISRIGGRTYYADSVKGRFTISRDNAKNTVSLQMNSLKPEDTAVYYCAAGYGGTFNCGQGTQVTVSS	high polyreactivity
QVQLVESGGGLVQAGGSLRLSCAASGRTFRTNAMGWYRQAPGKERELVAAISTGGGITNYADSVKGRFTISRDNAKNTVYLQMNSLKPEDTAVYYCNADIYTWFQIGGYQYDYWGQGTQVTVSS	low polyreactivity
QVHLVESGGGLVQAGGSLRLSCAASGFTFRYNAMGWYRQAPGKERELVAAISWSGGSTYYADSVKGRFTISRDNAKNTVYLQMNSLKPEDTAVYYCNVGWGRVYKSRYDYWGQGTQVTVSS	high polyreactivity
QVQLVESGGGLVQAGGSLRLSCAASGRTSFYYGMGWYRQAPGKERELVAGINYGGGSTYYADSVKGRFTISRDNAKNTVYLQMNSLKPEDTAVYYCNAGDGPDEEYDYWGQGTQVTVSS	low polyreactivity
QVQLVESGGGLVQAGGSLRLSCAASGRTFVGYAIGWSRPATGKERELVAAISRTGGSTYYADSVKGRFTISRDNAKNTVYLQMNSLKPEDTAVYYCNAVTLSSTYGGHDYWGQGTQVTVSS	high polyreactivity
QVQLVESGGGLVQAGGSLRLSCAASGIIFDWYAMGWYRQAPGKERELVAAISDSGDTTYYADSVKGRFTISRDNAKNTVYLQMNSLKPEDTAVYYCAAVSYQYYDLDYWGQGTQVTVSS	high polyreactivity
